From article doi:10.1101/2020.03.14.988758 (bioRxiv, 2020) come the findings set out here.

This test concerns the target ectodomain construct of MuSK (ectoMuSK) (aa1-472) (Homo sapiens (assumed), UniProt O15146, biotin on the Avitag (site-specific, BirA)). Kind of test: BLI. For orientation: In BLI a coated tip is dipped into the sample, and binding shifts an interference pattern.

Broadly, the Kd is the concentration at which binding is half-saturated. A high value points to weaker binding.

ectodomain construct of MuSK (ectoMuSK) (aa1-472), sequence (O15146 24-472): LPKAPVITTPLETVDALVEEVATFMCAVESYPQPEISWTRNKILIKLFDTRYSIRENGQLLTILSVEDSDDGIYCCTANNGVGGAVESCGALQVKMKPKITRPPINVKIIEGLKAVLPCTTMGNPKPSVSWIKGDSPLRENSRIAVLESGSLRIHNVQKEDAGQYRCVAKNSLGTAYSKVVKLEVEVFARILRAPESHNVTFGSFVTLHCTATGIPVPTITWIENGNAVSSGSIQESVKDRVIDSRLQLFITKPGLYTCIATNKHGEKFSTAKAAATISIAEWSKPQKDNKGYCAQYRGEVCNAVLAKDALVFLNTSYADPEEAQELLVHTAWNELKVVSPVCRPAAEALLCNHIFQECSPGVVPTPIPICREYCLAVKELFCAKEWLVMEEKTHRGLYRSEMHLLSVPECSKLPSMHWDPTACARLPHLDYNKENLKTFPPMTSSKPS

B1: Fab MuSK1A (mature) (Fab, V domains shown)
VH: QVQLVQSGAEVKKPGASVKVSCKTSGYTFNNYDINWVRQAAGQGLEWMGWMNPYSGNTGYAQKFQGRVTMTRNISITTVYMELSSLRSEDTAVYYCAREVRGDTGYGGGSDYWGQGTLVTVSS
VL: SYELTQPPSVSLSPGQTATITCSGDKLDDNYVCWYQQKPGQSPVLVIYQDTMRPSGIPERFSGSNSGNIATLTISGTQAVDEADYYCQAWDGSTVVFGGGTRLTVL
In turn, B1 returned a Kd of 0.41 nM.

B2: Fab MuSK1B (mature) (Fab, V domains shown)
VH: EVQLVEWGAGLLKPSETLSLTCAVYGGSFSGDYWWTWIRQPPGKGLEWIGEIDHTGNTNYNPSLKSRLTLSVDMSKNHFSLKLTSVTAADTALYFCARQEGLGYYDSWGQGTLVTVSS
VL: SYELTQSPSVSVSPGQTANITCSGDKLGDRYASWYQQKPAQSPVLVIYQDDRRPSGIPERFSGSNSGNTATLTISGTQGMDEADYYCQAWDGTTVFGGGTKLTVL
As for B2, the Kd turned out to be 0.44 nM. This Kd and that of the molecule before are within 1.5-fold of each other.
